The RNAGym collection of RNA variant scans (doi:10.1021/acssynbio.7b00057)

B1: Pistol ribozyme (parent)
chain: GGGUCGUUGUUCCAUAAUCGCGUGGAUAUGGCACGCAAGUUUCUACCGGGCACCGUAAAUGUCCGACUGGAGCCGUUCGGGCGGCUAUAAACAGACCUCAGGCCCGAAGCGUGGCGGCACCUGCCGCCGGUGGUAAAAAAGAUCGGAAGAGCACACGUCU

Variants of: B1
Assay: aptazyme ON/OFF ratio, guanine; higher = stronger switching; co-transcriptional cleavage with and without guanine

Variant	aptazyme ON/OFF ratio
U7A U8G G9C U10C U11C C13G	1.02
U7A U8G G9U U10C U11A C12U C13A	1.41
U7A U8G G9U U10C U11A C12U C13G	1.32
U7A U8G G9U U10C U11A C12U C13U	1.36
U7A U8G G9U U10C U11A C13G	1.33
U7A U8G G9U U10C U11A C13U	1.33
U7A U8G G9U U10C U11A C13A	1.44
U7A U8G G9U U10A U11G C12G	1.19
U7A U8G G9U U10A U11G C12U	1.17
U7A U8G G9U U10A U11G C12A	1.06
U7A U8G G9U U10A U11G C12A C13G	1.12
U7A U8G G9U U10A U11G C12A C13U	1.19
U7A U8G G9U U10A U11G C12A C13A	1.11
U7A U8G G9U U10A U11A C12U	1.32
U7A U8G G9U U10A U11A C12A	1.2
U7A U8G G9U U10A U11A C12G	1.33
U7A U8G G9C U10G	1.46
U7A U8G G9C U10C	2.58
U7A U8G G9C U10G U11C C12U C13G	1.37
U7A U8G G9C U10G U11C C12U C13U	1.21
U7A U8G G9C U10G U11C C12U C13A	1.31

Variant	aptazyme ON/OFF ratio
U7A U8G G9U U10A U11A	2.58
U7A U8G G9U U10A U11G	2.03
U7A U8G G9U U10A U11C	1.06
U7A U8G G9U U10A U11G C12U C13G	1.16
U7A U8G G9U U10A U11G C12U C13U	1.18
U7A U8G G9U U10A U11G C12U C13A	1.08
U7A U8G G9U U10C C13G	1.21
U7A U8G G9U U10C C13U	1.57
U7A U8G G9U U10C C13A	1.33
U7A U8G G9U U10A C12A C13U	1.36
U7A U8G G9U U10A C12A C13A	1.31
U7A U8G G9U U10A C12A C13G	1.28
U7A U8G G9C U10G C13G	1.19
U7A U8G G9C U10G C13A	1.52
U7A U8G G9C U10G C13U	1.17
U7A U8G G9C U10G U11C C13U	1.04
U7A U8G G9C U10G U11C C13A	1.1
U7A U8G G9C U10G U11C C13G	1.08
U7A U8G G9C U10C U11C C12A C13A	1.01
U7A U8G G9C U10C U11C C12A C13G	1.06
U7A U8G G9C U10C U11C C12A C13U	1.04

Variant	aptazyme ON/OFF ratio
U7A U8G G9C U10C U11A C12U C13A	1.13
U7A U8G G9C U10C U11A C12U C13G	1.18
U7A U8G G9C U10C U11A C12U C13U	1.2
U7A U8G G9C U11G C13U	1.4
U7A U8G G9C U11G C13G	1.22
U7A U8G G9C U11G C13A	1.43
U7A U8G G9U U10C U11A C12G C13G	1.28
U7A U8G G9U U10C U11A C12G C13A	1.27
U7A U8G G9U U10C U11A C12G C13U	1.37
U7A U8G G9U U10C U11G C12G	1.45
U7A U8G G9U U10C U11G C12A	1.5
U7A U8G G9U U10C U11G C12U	1.21
U7A U8G G9U U10C U11G C13A	1.28
U7A U8G G9U U10C U11G C13G	1.38
U7A U8G G9U U10C U11G C13U	1.31
U7A U8G G9U U10C U11C C12U	1.36
U7A U8G G9U U10C U11C C12G	1.37
U7A U8G G9U U10C U11C C12A	1.3
U7A U8G G9U U10A U11C C12U C13G	1.49
U7A U8G G9U U10A U11C C12U C13U	1.2
U7A U8G G9U U10A U11C C12U C13A	1.21

Variant	aptazyme ON/OFF ratio
U7A U8G G9C U10C U11A	1.03
U7A U8G G9C U10C U11C	0.976
U7A U8G G9C U10C U11G	1.26
U7A U8G G9C U10C U11A C13A	1.16
U7A U8G G9C U10C U11A C13G	1.22
U7A U8G G9C U10C U11A C13U	1.22
U7A U8G G9U U10C U11C C12U C13U	1.23
U7A U8G G9U U10C U11C C12U C13A	1.14
U7A U8G G9U U10C U11C C12U C13G	1.2
U7A U8G G9U C12G C13G	1.4
U7A U8G G9U C12G C13U	1.33
U7A U8G G9U C12G C13A	1.22
U7A U8G G9U U10C U11G C12G C13A	1.36
U7A U8G G9U U10C U11G C12G C13G	1.26
U7A U8G G9U U10C U11G C12G C13U	1.18
U7A U8G G9C U10G U11C C12G C13G	1.3
U7A U8G G9C U10G U11C C12G C13A	1.27
U7A U8G G9C U10G U11C C12G C13U	1.4
U7A U8G G9C U10G U11A C12G C13U	1.46
U7A U8G G9C U10G U11A C12G C13A	1.33
U7A U8G G9C U10G U11A C12G C13G	1.39
